Reference: patent publication US20230035659A1, “Compositions and Methods for TTR Gene Editing and Treating ATTR Amyloidosis Comprising a Corticosteroid or Use Thereof” (Intellia Therapeutics, Inc., priority 2019, published 2023)
Strand notation (5' to 3'): a small letter for the sugar, then the base; units joined by * are phosphorothioate-linked, units joined directly phosphodiester-linked; [ ] holds rarer units or linkages, { } end groups; capitals alone tell only the bases. m = 2'-O-methyl; r = 2'-OH (RNA)

What was measured:
[1] = system: potential off-target genomic sites; experiment: Off-target analysis by oligo insertion based assay in primary human hepatocytes (sgRNAs); type: cell-based; conditions: 100 ng Cas9 mRNA, 25 nM sgRNA, 12.5 nM donor oligo, 48 h
TTR mRNA = TTR mRNA knockdown (quantitative PCR) in primary human hepatocytes treated with LNPs; type: cell-based; conditions: PHH; LNP dose 300 ng mRNA cargo; gRNA:mRNA 1:2; 96 h; biological triplicates; vs untreated control
Experimental: In one experiment, PHH were cultured and treated with LNPs comprising Cas9 mRNA (SEQ ID NO:1) and a gRNA of interest (See FIG. 29, Table 36), as described in Example 4. The LNPs were prepared using the cross-flow procedure described above and purified and concentrated using PD-10 columns and Amicon centrifugal filter units, respectively. The LNPs were formulated with an N:P ratio of 6.0 and contained Lipid A, Cholesterol, DSPC, and PEG2k-DMG in a 50:38:9:2 molar ratio, respectively. The LNPs comprised a gRNA:mRNA ratio of 1:2, and the cells were treated at a dose of 300 ng (with respect to the amount of mRNA cargo delivered).
(§1) Ninety-six (96) hours following LNP treatment (with biological triplicates for each condition), mRNA was purified from PHH cells using the Dynabeads mRNA DIRECT Kit (ThermoFisher Scientific) according to the manufacturer's protocol. Reverse Transcription (RT) was performed with Maxima reverse transcriptase (ThermoFisher Scientific) and a poly-dT primer. The resulting cDNA was purified with Ampure XP Beads (Agencourt). For Quantitative PCR, 2% of the purified cDNA was amplified with Taqman Fast Advanced Mastermix and 3 Taqman probe sets, TTR (Assay ID: Hs00174914_m1), GAPDH (Assay ID: Hs02786624_g1), and PPIB (Assay ID: Hs00168719_m1). The assays were run on the QuantStudio 7 Flex Real Time PCR System according to the manufacturer's instructions (Life Technologies). Relative expression of TTR mRNA was calculated by normalizing to the endogenous controls (GAPDH and PPIB) individually, and then averaged.
The groups in FIG. 29 and Table 36 are identified by the gRNA ID used in each LNP preparation.
In a separate experiment, TTR mRNA knockdown was evaluated following treatment with LNPs comprising G000480, G000486, and G000502. The LNPs were formulated and PHH were cultured and treated with the LNPs, each as described in the experiment above in this Example with the exception that the cells were treated at a dose of 100 ng (with respect to the amount of mRNA cargo delivered).
as §1, with “(single treatment” for “(with biological triplicates”, “the High Capacity cDNA Reverse Transcription Kit” for “Maxima reverse transcriptase”, “according to the manufacturer's instructions.” for “and a poly-dT primer. The resulting cDNA was purified with Ampure XP Beads (Agencourt).”, “the” for “the purified”
The groups in FIG. 30 and Table 37 are identified by the gRNA ID used in each LNP preparation.

B1: G000567: TTR sgRNA modified sequence, Human, SEQ ID NO: 109; guide sequence of CR003352 (nucleic acid)
guide: mG*mA*mA*rArGrGrCrUrGrCrUrGrArUrGrArCrArCrCrGrUrUrUrUrArGrAmGmCmUmAmGmAmAmAmUmAmGmCrArArGrUrUrArArArArUrArArGrGrCrUrArGrUrCrCrGrUrUrArUrCrAmAmCmUmUmGmAmAmAmAmAmGmUmGmGmCmAmCmCmGmAmGmUmCmGmGmUmGmCmU*mU*mU*mU
# Sites in PHH (off-target integration sites detected) [1]: 0
Avg % Knockdown (TTR mRNA) (TTR mRNA): 90.89%

B2: G000572: TTR sgRNA modified sequence, Human, SEQ ID NO: 113; guide sequence of CR003385 (nucleic acid)
guide: mC*mC*mC*rCrUrArCrUrCrCrUrArUrUrCrCrArCrCrArGrUrUrUrUrArGrAmGmCmUmAmGmAmAmAmUmAmGmCrArArGrUrUrArArArArUrArArGrGrCrUrArGrUrCrCrGrUrUrArUrCrAmAmCmUmUmGmAmAmAmAmAmGmUmGmGmCmAmCmCmGmAmGmUmCmGmGmUmGmCmU*mU*mU*mU
# Sites in PHH (off-target integration sites detected) [1]: 2
Avg % Knockdown (TTR mRNA) (TTR mRNA): 55.92%

B3: G000568: TTR sgRNA modified sequence, Human, SEQ ID NO: 110; guide sequence of CR003391 (nucleic acid)
guide: mG*mG*mC*rUrGrUrCrGrUrCrArCrCrArArUrCrCrCrArGrUrUrUrUrArGrAmGmCmUmAmGmAmAmAmUmAmGmCrArArGrUrUrArArArArUrArArGrGrCrUrArGrUrCrCrGrUrUrArUrCrAmAmCmUmUmGmAmAmAmAmAmGmUmGmGmCmAmCmCmGmAmGmUmCmGmGmUmGmCmU*mU*mU*mU
# Sites in PHH (off-target integration sites detected) [1]: 11
Avg % Knockdown (TTR mRNA) (TTR mRNA): 53.44%

B4: G000481: TTR sgRNA modified sequence, Human, SEQ ID NO: 88; guide sequence of CR003345 (nucleic acid)
guide: UCUAGAACUUUGACCAUCAGGUUUUAGAGCUAGAAAUAGCAAGUUAAAAUAAGGCUAGUCCGUUAUCAACUUGAAAAAGUGGCACCGAGUCGGUGCUUUU
modifications: sugars from the 5' end m3 r25 m12 r28 m32, backbone not given here; further chemistry not fully specified
# Sites in PHH (off-target integration sites detected) [1]: 0
Avg % Knockdown (TTR mRNA) (TTR mRNA): 91.39%
